We go through one protein from paper PMC10006087, “The TINCR ubiquitin-like microprotein is a tumor suppressor in squamous cell carcinoma” (Nature Communications, 2023).

This data set concerns the molecule itself. The experiment in a line: crystal structure; micro-batch under oil at 4 °C with seeding; 0.1 M magnesium sulfate heptahydrate, 0.1 M sodium acetate pH 5, 20% (w/v) PEG 1000; space group P4(3)2(1)2; 2.12 Å; two protomers in the asymmetric unit.

B1: human TINCR protein (natural protein, UniProt A0A2R8Y7D0 1-87, looked up)
chain: MEGLRRGLSRWKRYHIKVHLADEALLLPLTVRPRDTLSDLRAQLVGQGVSSWKRAFYYNARRLDDHQTVRDARLQDGSVLLLVSDPR
notes: TINCR ubiquitin-like microprotein, human; The N-terminal 15-residue cap is visible in protomer A only; also called TINCR ubiquitin-like microprotein; TINCR recombinant protein
On to B1, for which the binding result is on record as “binds”.
